Where two headings read alike, the source gives them in different places.
B1: LEF1 P2 YY1-site mutant probe (ATG to CGT) (dsDNA)
DNA 1: AAAGCATCCAGCGTGAGGCCTCTAC
DNA 2: GTAGAGGCCTCACGCTGGATGCTTT
B2: LEF1 P2 wild-type probe (+13 to +37) (dsDNA)
DNA 1: AAAGCATCCAGATGGAGGCCTCTAC
DNA 2: GTAGAGGCCTCCATCTGGATGCTTT

How the values were obtained:
YY1 (Yin Yang 1) [1] = target: T1, YY1 (Yin Yang 1) (human, UniProt P25490 1-414); assay: EMSA
YY1 (Yin Yang 1) [2] = target: T1, YY1 (Yin Yang 1); assay: EMSA; remark: listed apart in the source

T1 sequence (P25490 whole entry): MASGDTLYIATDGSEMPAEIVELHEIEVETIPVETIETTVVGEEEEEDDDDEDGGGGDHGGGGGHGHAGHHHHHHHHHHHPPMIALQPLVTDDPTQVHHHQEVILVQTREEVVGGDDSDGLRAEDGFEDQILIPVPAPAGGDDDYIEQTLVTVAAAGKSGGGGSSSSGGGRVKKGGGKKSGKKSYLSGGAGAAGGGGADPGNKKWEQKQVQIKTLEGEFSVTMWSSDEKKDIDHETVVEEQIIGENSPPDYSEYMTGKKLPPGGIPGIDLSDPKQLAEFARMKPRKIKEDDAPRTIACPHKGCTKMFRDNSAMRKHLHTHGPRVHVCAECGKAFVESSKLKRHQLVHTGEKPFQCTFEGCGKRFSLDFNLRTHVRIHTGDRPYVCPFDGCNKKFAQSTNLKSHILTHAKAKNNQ

Binder | binding result (YY1 (Yin Yang 1) [1]) | binding result (YY1 (Yin Yang 1) [2])
B1 | no binding | 
B2 |  | binds
